Data: the supplement of paper PMC10567573
± gives the standard deviation.

Test: protein stability index of a GFP-peptide fusion (GPS, HEK-293T) (PSI 1-6); higher = more stable
[1] = treatment: DMSO, c terminus: a fixed tail appended
[2] = treatment: MLN4924 1 uM, 8 h, c terminus: a fixed tail appended
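Also: 24-mer peptide tiles fused after GFP, lentivirally expressed, FACS-sorted into six equal bins by GFP/DsRed ratio, decoded by Illumina sequencing, PSI is the read-weighted mean bin number.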

Row | Sequence | protein stability index [1] | protein stability index [2] | protein stability index (treatment: DMSO, c terminus: native) | protein stability index (treatment: MLN4924 1 uM, 8 h, c terminus: native)
1 | YKMDHRRRGIALIFNHERFFWHLT [CASP6] | 2.4 ± 0.72 | 2.2 ± 0.47 |  | 
2 | IMALVAAILLLVIIILIVMKYRT [VAMP4] |  |  | 3.07 ± 0.33 | 3.16 ± 0.07
3 | IYLINQKWFGRKRTLSAFLCLGGL [SLC22A15] | 3.15 ± 0.26 | 3.01 ± 0.56 |  | 
4 | AQTIPTKDRLEGLLAFKEKRPPRY [AUH] | 3.73 ± 0.24 | 4.06 ± 0.24 |  | 
5 | HGEEEVETFAFQAEIAQLMSLIIN [HSP90AB1] | 2.58 ± 0.33 | 2.95 ± 0.28 |  | 
6 | LEDTCKTIEECCRKQKQELCEKFD [TRIM55] | 4.86 ± 0.094 | 4.74 ± 0.25 |  | 
7 | ILDLLVLEQFLSILPKELQGWVRE [ZSCAN9] | 2.38 ± 0.45 | 2.19 ± 0.39 |  | 
8 | VVKKIALREIRMLKQLKHPNLVNL [CDKL4] | 2.2 ± 0.76 | 2.63 ± 0.11 |  | 
9 | GCEHSCVSSEDSFVCQCFEGYILR [MATN2] | 3.12 ± 0.38 | 3.27 ± 0.53 |  | 
10 | EMRIPALNAYMKSLLSLPVWVLMD [NCF4] | 3.26 ± 0.95 | 2.92 ± 0.55 |  | 
11 | SSSTLMSSELETTSFFDSDEDDST [DVL3] | 5.54 ± 0.38 | 5.61 ± 0.14 |  | 
12 | REAVSQLRELCRLWLRPETHTKEQ [ZNF24] | 2.8 ± 0.32 | 3.03 ± 0.41 |  | 
13 | GDGLLVGSEKVTMQNLNDRLASYL [KRT16] | 2.66 ± 0.17 | 2.78 ± 0.32 |  | 
14 | FAHSSNLLRHQRIHTGERPYKCPE [ZNF263] | 2.99 ± 0.28 | 3.35 ± 0.36 |  | 
15 | DIKAAFAPFGRISDARVVKDMATG [TIA1] | 3.31 ± 0.16 | 3.18 ± 0.4 |  | 
16 | LPVGTQLLTVTATDRDEGANGEVT [PCDHGA10] | 5.32 ± 0.37 | 5.4 ± 0.23 |  | 
17 | MVLLTMIARVADGLPLAASMQEDE [SEC22B] | 3.26 ± 0.71 | 2.94 ± 0.2 |  | 
18 | LIVGAPIWFRVPYSIISLLLKDKV [PTPN9] | 2.59 ± 0.37 | 2.75 ± 0.85 |  | 
19 | KINKIRWLPQQNAAYFLLSTNDKT [PPP2R2B] | 2.69 ± 0.26 | 2.54 ± 0.039 |  | 
20 | RCEMEAQNQEYKMLLDIKTRLEQE [KRT15] | 4.44 ± 0.17 | 4.6 ± 0.18 |  | 
21 | VWERPARSALWCLGLNAAFWFFAL [RETREG3] | 2.62 ± 0.77 | 2.61 ± 0.2 |  | 
22 | NKINAGMYILSPAVLRRIQLQPTS [GMPPB] | 2.24 ± 0.24 | 2.28 ± 0.38 |  | 

Row | Sequence | protein stability index [1] | protein stability index [2] | protein stability index (treatment: DMSO, c terminus: native) | protein stability index (treatment: MLN4924 1 uM, 8 h, c terminus: native)
23 | LRDVNHEKAMAEWVKQQAEREAEK [SDE2] | 5.19 ± 0.12 | 5.42 ± 0.23 |  | 
24 | KFKESFAEMNRGSNEWKTVVGGAM [COX4I1] | 3 ± 0.13 | 3.2 ± 0.29 |  | 
25 | RELLLDGGYLQRTTYDRRSSQERK [RSPH3] | 4.39 ± 0.28 | 4.8 ± 0.24 |  | 
26 | PALETQPQGDEEDIASRYPTLWTE [SMOC2] | 4.78 ± 0.34 | 4.85 ± 0.54 |  | 
27 | YHMFQREKVEVQLPELFHKIGVGA [KCNAB2] | 2.52 ± 0.59 | 2.39 ± 0.45 |  | 
28 | DLLAYGAKAELPKYKSFNRTAMPY [MYOZ1] | 2.42 ± 0.12 | 2.29 ± 0.19 |  | 
29 | AHHPLHPHLMQEHMGTNVIVANTM [HNF4A] | 3.2 ± 0.23 | 3.21 ± 0.17 |  | 
30 | KAFLTKTMLIVHHRTHTGERPYGC [ZNF649] | 2.45 ± 0.3 | 2.03 ± 0.23 |  | 
31 | LSDTELTTLLRRYNIPHGPVVGST [EMD] | 2.74 ± 0.38 | 2.69 ± 0.26 |  | 
32 | DLSSLRAKYPHDVVNHLSCDEARN [SPACA9] | 4.47 ± 0.21 | 4.33 ± 0.47 |  | 
33 | WDPSPRGCFTLPRSEPIRPIDPAA [DVL3] | 3.98 ± 0.23 | 3.77 ± 0.073 |  | 
34 | QSERQRHESQQLATETQALAQRTQ [TEKT4] | 5.43 ± 0.21 | 5.32 ± 0.16 |  | 
35 | REVMESAVGNSSGSGQNEESPRKR [FBXO28] | 5.51 ± 0.14 | 5.49 ± 0.38 |  | 
36 | RKGKDKENGSVSSSETPPPPPPPN [EIF5] | 5.15 ± 0.2 | 5.22 ± 0.28 |  | 
37 | SINTHLGKEQSRRDDLEALGHMFM [CSNK1G3] | 2.81 ± 0.28 | 3.03 ± 0.49 |  | 
38 | PAQSHTLQANDVFHKQQWFNCIRA [NET1] | 2.71 ± 0.38 | 2.71 ± 0.3 |  | 
39 | DLLCAQLQLPQLSDLGLLRLCTWL [FANCE] | 2.53 ± 0.35 | 2.78 ± 0.42 |  | 
40 | IQVEDIRIRAILSTYRKRTPVMEG [LOXL2] | 2.13 ± 0.48 | 2.16 ± 0.35 |  | 
41 | VASLPLDQSDEGSSSQKEESPSTL [MAGEA10] | 5.65 ± 0.14 | 5.64 ± 0.14 |  | 
42 | QSNLEPLSPMTASSFLSFAELFSY [FEM1A] | 2.26 ± 0.26 | 2.42 ± 0.3 |  | 
43 | AYLELEITLSQEQIQKYTDCLQFY [RTN1] | 2.57 ± 0.4 | 3.04 ± 0.86 |  | 
44 | LDPWFAGSSNVGINRWRFLLQCLE [CRY1] | 2.5 ± 0.36 | 2.54 ± 0.23 |  | 

Row | Sequence | protein stability index [1] | protein stability index [2] | protein stability index (treatment: DMSO, c terminus: native) | protein stability index (treatment: MLN4924 1 uM, 8 h, c terminus: native)
45 | QLREALKILAERVLILETMIGLYE [EMID1] | 2.31 ± 0.27 |  |  | 
46 | ANPFQAYLDVDLTLTREQTERLSH [RTN2] | 3.65 ± 0.3 | 3.67 ± 0.31 |  | 
47 | PGPPGSSRPVKGQVVTVHLQTSLE [FKBP8] | 3.5 ± 0.48 | 3.53 ± 0.22 |  | 
48 | RSIQGHNDYICPATNQCTIDKNRR [ESR2] | 3.84 ± 0.43 | 4.21 ± 0.33 |  | 
49 | TGCVLGSSGKVLPKWGWEQLEVTC [POMT2] | 2.07 ± 0.36 | 2.25 ± 0.27 |  | 
50 | LQAPVPPDSVPSLQNMGLLLDKLA [PBXIP1] | 3.11 ± 0.44 | 2.86 ± 0.46 |  | 
51 | NASRSLYPDAEDPQLGLDGPGEPD [PSD2] | 5.4 ± 0.2 | 5.51 ± 0.22 |  | 
52 | RWALLSCRGKKPSRIYGQAMAIIN [KLHDC10] | 2.32 ± 0.55 | 2.18 ± 0.32 |  | 
53 | ETIKCVVVGDNAVGKTRLICARAC [RHOBTB1] | 2.39 ± 0.2 | 2.44 ± 0.21 |  | 
54 | ADADCFVCVFLSHGEGNHIYAYDA [CASP6] | 2.82 ± 0.66 | 2.81 ± 0.75 |  | 
55 | GPEPKDKGSLPQPPITEVESQVFS [ZNF232] | 5.51 ± 0.078 | 5.36 ± 0.23 |  | 
56 | EDSSNQEEEGPSTFPDLESEFQAA [MAGEA3] | 5.51 ± 0.28 | 5.48 ± 0.16 |  | 
57 | QVAKTKQQIEEQRVQVQVVERAQQ [FLOT1] | 5.18 ± 0.16 | 5.32 ± 0.15 |  | 
58 | KMELLILETQAQVCQALAQVDGGA [CPOX] | 2.14 ± 0.52 | 2.18 ± 0.52 |  | 
59 | FQRRNMIEPRERAKFKRKYKVKLV [NOP53] | 2.87 ± 0.46 | 3.39 ± 0.58 |  | 
60 | MLNEPLVREIVKECSNIPLSQPQQ [GAN] | 3.85 ± 0.2 | 3.95 ± 0.077 |  | 
61 | IYDLNIPAFVKFAYVAEREDELSL [NCK2] | 2.25 ± 0.39 | 2.51 ± 0.2 |  | 
62 | QALAGASSGRELGRPKELQPKKLH [ZNF263] | 5.01 ± 0.46 | 4.82 ± 0.14 |  | 
63 | SRTCIGSSHSRGPLSWAPCGPIAG | 2.76 ± 0.18 | 2.84 ± 0.36 |  | 
64 | PKSPATPKQLRLINQPLPDLKNVK [MAP2] | 4.51 ± 0.27 | 4.793 ± 0.034 |  | 
65 | AIEKAFQLWSNVTPLTFTKVSEGQ [MMP1] | 2.45 ± 0.49 | 2.3 ± 0.33 |  | 
